The nanobody polyreactivity screen of Harvey et al. (2022)

Test: yeast display, Sf9 membrane polyspecificity reagent, FACS + sequencing; frameworks hold sequencing errors
How it was run: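 Genes from sorted yeast were amplified by colony PCR, read by MiSeq 2 × 250 sequencing and filtered on CDR length. These cells carried a synthetic nanobody library in Saccharomyces cerevisiae BJ5465 and were sorted by FACS into low and high (top ~1%) gates on anti-HA and streptavidin fluorescence. Polyreactivity is labelled according to the gate of origin.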

Row | Sequence | polyreactivity (PSR sort gate)
1 | QVQLVESGGGLVQAGGSLRLSCAASGRTFAPYAMVWYRQAPGKERELVAAITYSGGSTYYADSVKGRFTISRDNAKNTVYLQMNSLIPADTAVYYCAADSDYDPYDYWGQGTQVTVSS | low polyreactivity
2 | QVQLVESGGGLVQAGGSLRLSCAASGRTFARHVMGWYCQAPGKVRELVAGITTSGGSTYYADSVKGRFTISRDNPKNTGYFQMNSLKPEDTAVYYCATDRQRYYRTVRSPIFNYWGQGTQVTVSS | high polyreactivity
3 | QVQLVESGGGLVQAGGSLRLSCAASGRTFARNVMGSYRQAPGKERELVAAIRGSGGSTYYADSVKGRFTISRDNSKNTVYLQMNSLKPEDTAVYYCAADSSYTKRYSPTKLHFEYWGQGTQVTVSS | high polyreactivity
4 | QVQLVESGGGLVQAGGSLRLSCAASGRTFARYAIGWSRQAPGKERELVAAITRRGGSTYYADSVKGRFTLSRDNAKNTVYLQMNSLKPEDTAVYYCAAHYPNFGIGAYEYWGQGTQVTVSS | high polyreactivity
5 | QVQLVESGGGLVQAGGSLRLSCAASGRTFARYAMGWYRQAPGKERELVASIRRGTSTNYADSVKGRFTISRDNAKNTVYLQMNSLKPEDTAVYYCAARVGTEGYHGDYWGQGTQVTVSS | high polyreactivity
6 | QVQLVESGGGLVQAGGSLRLSCAASGRTFARYTMGWYRQAPGKERELVAAITSGGGSTYYADSVKGRFTISRDNAKNTVYLQMNSLKPEDTAVYYCNARRYYYITGRYGYWGQGTQVTVSS | high polyreactivity
7 | QVQLVESGGGLVQAGGSLRLSCAASGRTFASNDMGWYRHAPGNERELVAGITGSGGSTYYADSVKGRFTISRDNAKNTVYLQMNSLKPEDTAVYYCAADRSRGYGYDYWGQGTQVTVSS | low polyreactivity
8 | QVQLVESGGGLVQAGGSLRLSCAASGRTFASYAMGWYRKAPGKETELVATISSGDSTYADSVKGRFTISRDNAKITVYLQRNRLKPEDTAVYYCAAASDLPGTCGYDYWGQGTQVTVSS | low polyreactivity
9 | QVQLVESGGGLVQAGGSLRLSCAASGRTFASYTMGWYRQAPGKERELVAAITRGGSTNYADSVKGRFTISRDNAKNTVYLQMNSLKPEDTAVYYCAARFSRSFGYNYWGQGTQVTVSS | high polyreactivity
10 | QVQLVESGGGLVQAGGSLRLSCAASGRTFASYTMGWYRQPPGKESELVAAINARGGNTYYADSVKGRFTISRDNAKNTVYLQMNSLKPEDTAVYYCAARQKRFKVAAGYDYWGQGTQVTVSS | high polyreactivity
11 | QVQLVESGGGLVQAGGSLRLSCAASGRTFAWYAMGWYRQAPGKERELVAAISSSGGTTYYADSVKGRFTISRDNAKNTVYLQMNSLKPEDTAVYYCAARPGFWEYWGWWYDRYEYWGQGTQVTVSS | low polyreactivity
12 | QVQLVESGGGLVQAGGSLRLSCAASGRTFAYNAMGWYRQAAGKVRELVASITSGGSTNYADSVKGRFTISRDNAKNTVYLQMNSLKPEDTAVYYFIKDGKYHRVLYEYWGQGTQVTVSS | low polyreactivity
13 | QVQLVESGGGLVQAGGSLRLSCAASGRTFAYNAMGWYRQAPGKERELVAGITGGNSRTYYADSVKGRFTISRDNAKNTVYLQMNSLKPEDTAVYYCARRFYKGTSKTNLFDYWGQGTQVTVSS | high polyreactivity
14 | QVQLVESGGGLVQAGGSLRLSCAASGRTFAYNAMGWYRQAPGKERELVASITSGGSTNYSDSVKGRFTISRDNAKNTVYLQMNSLKPEDTAVYYCNKDGKYHRVLYDYCGQGTQVTVSS | low polyreactivity
15 | QVQLVESGGGLVQAGGSLRLSCAASGRTFAYYAMGWYRQAPGKERELVAAIRRSGRTNYADSVKGRFTISRDNAKNTVYLQMNSLKQEDTAVYYCAADYWQGDLRYDYWGQGTQVTVSS | low polyreactivity
16 | QVQLVESGGGLVQAGGSLRLSCAASGRTFAYYAMGWYRQAPGKERELVAAISSSGGITYYADSVKGRFTISRDNAKNTVYLQMNSLKPEDTAVYYCATPRARTRLRYYWGQGTQVTVSS | high polyreactivity
17 | QVQLVESGGGLVQAGGSLRLSCAASGRTFAYYAMGWYRQAPGKERELVAAITLRSGSTYYADSVKGRFTISRDNAKNTVYLQMNSLKPEDTAVYYCATDSLGVDRPNYNYWGQGTQVTVSS | low polyreactivity
18 | QVQLVESGGGLVQAGGSLRLSCAASGRTFAYYAMGWYRQAPGKERELVAAITTSGTRTYYADSVKGRFTISRDTAKNTVYLQMNSLKPEDTAVYSCAARYRYQYEFDYWGQGTQVTVSS | high polyreactivity
19 | QVQLVESGGGLVQAGGSLRLSCAASGRTFAYYAMGWYRQAPGKERELVATISWTTGSTYYADSVKGRFTISRDNAKNTVYLQMNSLKPEDTAVYYCNKRYNNPYWYPGRYPYDYWGQGTQVTVSS | high polyreactivity
20 | QVQLVESGGGLVQAGGSLRLSCAASGRTFCIYAMGWYIQAPGKEREFVAAISSSGGGTYYADSVKGRFTISRDNAKNTVYLQMNSLKPEDTAVYYCAADDGYSSNEYDYWGQGTQVTVSS | low polyreactivity
21 | QVQLVESGGGLVQAGGSLRLSCAASGRTFCLNAMGWYRQAPGKERELVAAISKSDDSTYYADSVKGRFTISRDNAKNTVYLQMNSLKPEDTAVYYCNADYYGWWYDTDYIGGYDYDYWGQGTQVTVSS | low polyreactivity
22 | QVQLVESGGGLVQAGGSLRLSCAASGRTFDGNAMGWYRQAPGKERELVAAISKRGGTTYYADSVKGRFTISRDKAKNTVYLQMTSLKPEDTAVYYCAAPYNTYSYSEGEYWGQGTQVTVST | low polyreactivity

Row | Sequence | polyreactivity (PSR sort gate)
23 | QVQLVESGGGLVQAGGSLRLSCAASGRTFDGNTMGWYRQAPGKERELVAAITKRGGSTYYADSVKGRFTISRDNAKNTVYLQMNSLKPEDTAVYYCNAVWRNWYARVDEYDYWGQGTQVTVSS | high polyreactivity
24 | QVQLVESGGGLVQAGGSLRLSCAASGRTFDGYAMGWSRQAPGKERELVAAINRSGGNTYYADSVKGRFTISRDNAKNTVYLQMNSLNPVDTAVYYCAADGWTSIGVPDYQHDYWGQGTQVTVSS | high polyreactivity
25 | QVQLVESGGGLVQAGGSLRLSCAASGRTFDGYAMGWYRQAPGKERELVASINGGGSTNYADSVKGRFTISRDNAKNTVYLQMNSLKPEDTAVYYCAAESKGTWHYLYTSPHYYWGQGTQVTVSS | low polyreactivity
26 | QVQLVESGGGLVQAGGSLRLSCAASGRTFDGYSMGWYRQAPGKEREFVASINGGGSTNYADSVNGRFTISRDNAKNTVYLQMNSLKPEDTAVYYCAAESKGTWLYLYNSPHYYWGQGTQVTVSS | low polyreactivity
27 | QVQLVESGGGLVQAGGSLRLSCAASGRTFDGYTMGWSRQAPGKERELVAAISRTGSTNYADSVKGRFTISRDNAKNTVYLQMNSLEPEDTAVYYCNAARRYFRYSRKTSAWYYYWGQGTQVTVSS | high polyreactivity
28 | QVQLVESGGGLVQAGGSLRLSCAASGRTFDIYAMGWYRQAPGKERELVAAISSGGSTYYADSVKGRFTISRDNAKNTVYLQINSLKPEDTAVYYCAVRWYDQVSRRGIGYYWGQGSQVTVSS | low polyreactivity
29 | QVQLVESGGGLVQAGGSLRLSCAASGRTFDLYAMGWDRQAPGKERELVAAITKGGGSTYYADSVKGRFTISRDNAKNTVYLQMNSLKPEDSAVYYCAARKYKRIYRISSGIGYYWGHGTQVTVSS | high polyreactivity
30 | QVQLVESGGGLVQAGGSLRLSCAASGRTFDNNAMGWYRQAPGKEREFVAAITTGVGSTYADSVKGRFTISRDNAKNTVYLQMNSLKPEDTAVYYCAADSYWLFDAYDYWGQGTQVTVSS | low polyreactivity
31 | QVQLVESGGGLVQAGGSLRLSCAASGRTFDPNAMGWYRQAPGKERELVAAISGRGTSTYYADSVKGRFTISRDDAKNTVYLQMNSLKPEDTAVYYCAKAGAGESIAKYDYWGQGTQVTVSS | low polyreactivity
32 | QVQLVESGGGLVQAGGSLRLSCAASGRTFDPNAMGWYRQAPGKERELVAVITARGGNTSYADSVKGRFTISRDNAKNTVYLQMISLKPEDTAVYYCAAPADDTVHYQNYYWGQGTQVTVSS | low polyreactivity
33 | QVQLVESGGGLVQAGGSLRLSCAASGRTFDPYAMGWYRQAPGKERELVAAITSSGGSTYYADSVKGRFTISRDNAKNTVYLQMNSLKPEDTAVYYCAAEQRDFIWWFYYWGQGTQVTVSS | high polyreactivity
34 | QVQLVESGGGLVQAGGSLRLSCAASGRTFDRNAMGWYRQAPGKEREVVAAISSSSGSTYYADSVKGRFTISRDNAKNTVYLQMNSLKPEDTAVYYCATVRWYYSRPRPTTAYGYWGQGTQGTVSS | high polyreactivity
35 | QVQLVESGGGLVQAGGSLRLSCAASGRTFDRYDMGWYRQAPGKERELVATISSSGGSTYYADSVKGRFTISRDNAKNTVYLQMNSLKPEDTAVYYCAADPSGDYWGQGTQVTVSS | low polyreactivity
36 | QVQLVESGGGLVQAGGSLRLSCAASGRTFDSNTMGWYRQAPGKERELVAAITGSGGRTYYADSVKGRFTISRDNAKNTVYLQMNSLKPEDTAVYYCNADSLYRYGSQYYYWGQGTQVTVSS | high polyreactivity
37 | QVQLVESGGGLVQAGGSLRLSCAASGRTFDSYAMGWYRQAPGTETELVAGITRSGDSSYADSVKGRFTISRDNAKNTVYLQMTSLKPEDTAVYYCNKEGTVGGTRGYWGQGTQVTVSS | low polyreactivity
38 | QVQLVESGGGLVQAGGSLRLSCAASGRTFDSYTMGWYRQAPGKERELVAAINYSVASTNYADSLKGRFTISRDNAKITVYLQMNSLKTEDTAVYYCNRASAGWGPGTQVTVSS | low polyreactivity
39 | QVQLVESGGGLVQAGGSLRLSCAASGRTFDVYAMGWYRQAPGKERELVAAISKRGGSTYYADSVKGRFTISRDNAKNTVYLQMNSLKPEDTAVYYCNAYQTGWKGYDYWGQGTQVTVSS | high polyreactivity
40 | QVQLVESGGGLVQAGGSLRLSCAASGRTFDYNAMGWYRQAPGKERELVAAISYSTGTTYYADSVKGRFTISRDNAKNTVYLQMNSLKPEDTAVYYCAAEIFYSEYGYWGQGTQVTVSS | low polyreactivity
41 | QVQLVESGGGLVQAGGSLRLSCAASGRTFDYYTMGWYRQAPGKERELVAAISRSSGRTYYADSVKGRFTISRDNAKNTVYLQMNSLKPEDTAVYYCAARYYLSVRYGYWGQGTQVTVSS | high polyreactivity
42 | QVQLVESGGGLVQAGGSLRLSCAASGRTFEHYAMGWYRQAPGKEREFVAVIDSSDGSTYYADSVKGRFTISRDNAKNTVYLQMNSLKPEDTAVYYCLGGYYYLQYDYWGQGTQVTVSS | low polyreactivity
43 | QVQLVESGGGLVQAGGSLRLSCAASGRTFEHYAMGWYRQAPGKERELVAAITWSGVSTYYADSVKGRFTISRDNAKNTVYVQMNSLKPEDTAVYYCAANWLGYGFDYWGQGTQVTVSS | low polyreactivity
